Source: patent publication US20140057332A1, “GLUCO-OLIGOSACCHARIDE OXIDASES FROM ACREMONIUM STRICTUM AND USES THEREOF” (The Governing Council of the University of Toronto, priority 2011, published 2014)

Assays:
[1] = Chromogenic H2O2 oxidase assay / kinetic analysis on glucose
Description: (§2) A chromogenic assay was used to measure hydrogen peroxide production (15). Reactions contained 0.1 mM 4aminoantipyrine (4AA), 1 mM phenol, 0.5 U horseradish peroxidase, 40 mM Tris-HCl (pH 8.0), and different substrates were initiated by adding 0.2 μg of enzymes to the 250 μL reaction mixture. The production of H2O2 was coupled to the oxidation of 4aminoantipyrine by horseradish peroxidase and detected at 500 nm. Reactions were incubated at 37° C. for 15 min to measure the specific activity of GOOX on 10 mM of monosaccharide or 1 mM of oligosaccharide.
(§3) At least 12 substrate concentrations were included to obtain kinetic parameters for each substrate. Initial rates were obtained by measuring reaction products every 30 s for 15 min at 37° C. and pH 8.0, and kinetic parameters were calculated using the Michaelis-Menten equation (GraphPad Prism5 Software).

[2] = Temperature stability (residual activity on cellobiose); type: physicochemical; settings: for Residual activity after 1 h: assay 1 mM cellobiose, 37° C., pH 8
Description: (§1) Temperature stability was measured by incubating 0.2 μg of enzyme for 1 h at nine different temperatures ranging from 25 to 60° C. (Table 9). While GOOX-VN and the variant GOOX-V were stable at 45° C., both lost more than 70% activity after incubation for 1 h at 50° C. […] The pH stability of GOOX-VN was determined by incubating 0.2 μg of the enzyme for 1 h at pH values from pH 3 to 12. After 1 h of incubation, GOOX-VN retained more than 80% activity at pH 5 to pH 10, 40% activity at pH 4, and less than 10% activity at pH values below 3 or above 11. Finally, the optimum pH for GOOX-VN activity was determined by incubating 0.1 μg of enzyme at 37° C. for up to 5 min with 25 mM cellobiose in 25 mM Britton-Robinson universal buffer solutions at pH 5 to 12. At regular time points, the chromogenic assay mix containing 400 mM potassium phosphate buffer pH 6, 0.1 mM 4-aminoantipyrine, 1 mM phenol, 3 U/ml horseradish peroxidase and 40 mM cellobiose was added to the reaction and was incubated for approximately 5 min at 37° C., until the chromogenic compound was detected.

[3] = substrate: OC[C@H]1O[C@@H](O[C@H]2[C@H](O)[C@@H](O)[C@H](O[C@H]3[C@H](O)[C@@H](O)C(O)O[C@@H]3CO)O[C@@H]2CO)[C@H](O)[C@@H](O)[C@@H]1O; assay: purified protein, by the assay type; settings: other: 37° C., pH 8.0
Description: as §2, §3

[4] = substrate: OC[C@H]1O[C@H](O[C@H]2[C@H](O)[C@@H](O)C(O)O[C@@H]2CO)[C@H](O)[C@@H](O)[C@@H]1O; assay: purified protein, by the assay type; settings: other: 37° C., pH 8.0
Description: as §2, §3

[5] = substrate: OC[C@H]1O[C@@H](O[C@H]2[C@H](O)[C@@H](O)C(O)O[C@@H]2CO)[C@H](O)[C@@H](O)[C@@H]1O; assay: purified protein, by the assay type; settings: other: 37° C., pH 8.0
Description: as §2, §3

[6] = substrate: OC1OC[C@@H](O[C@@H]2OC[C@@H](O)[C@H](O)[C@H]2O)[C@H](O)[C@H]1O; assay: purified protein, by the assay type; settings: other: 37° C., pH 8.0
Description: as §2, §3

[7] = substrate: OC1OC[C@@H](O[C@@H]2OC[C@@H](O[C@@H]3OC[C@@H](O)[C@H](O)[C@H]3O)[C@H](O)[C@H]2O)[C@H](O)[C@H]1O; assay: purified protein, by the assay type; settings: other: 37° C., pH 8.0
Description: as §2, §3

[8] = substrate: OC[C@H]1OC(O)[C@H](O)[C@@H](O)[C@@H]1O; assay: purified protein, by the assay type; settings: other: 37° C., pH 8.0
Description: as §2, §3

[9] = Optimum pH for activity; type: biochemical; settings: 25 mM cellobiose, 37° C., Britton-Robinson buffer pH 5 to 12
Description: as §1

[10] = Chromogenic H2O2 oxidase assay on xylotetraose; settings: 1 mM xylotetraose; 37° C., 15 min
[11] = Chromogenic H2O2 oxidase assay / kinetic analysis on galactose
[12] = Chromogenic H2O2 oxidase assay on xylohexaose; settings: 1 mM xylohexaose; 37° C., 15 min
[13] = Chromogenic H2O2 oxidase assay / kinetic analysis on maltose
[14] = Chromogenic H2O2 oxidase assay / kinetic analysis on xylotriose
[15] = Chromogenic H2O2 oxidase assay / kinetic analysis on xylose
[16] = Chromogenic H2O2 oxidase assay on xylopentaose; settings: 1 mM xylopentaose; 37° C., 15 min
[17] = pH stability of enzyme; type: physicochemical
Description: as §1

[18] = Chromogenic H2O2 oxidase assay / kinetic analysis on NAG
[19] = Chromogenic H2O2 oxidase assay / kinetic analysis on cellobiose
[20] = 10 mM galactose, 37° C., 15 min
[21] = 1 mM xylotriose, 37° C., 15 min
[22] = 1 mM cellobiose, 37° C., 15 min

B1: Acremonium strictum gluco-oligosaccharide oxidase GOOX-VN (type strain CBS 346.70, V38 and N388), SEQ ID NO. 2 (Sarocladium strictum; A38V/S388N) (protein)
chain: NSINACLAAADVEFHEEDSEGWEMDGTAFNLRVDYDPVAIAIPRSTEDIAAAVQCGLDAGVQISAKGGGHSYGSYGFGGEDGHLMLELDRMYRVSVDDDNVATIQGGARLGYTALELLDQGNRALTHGTCPAVGIGGHVLGGGYGFATHTHGLTLDWLVGATVVLADASIVHVSKTENADLFWALRGGGGGFAIVSEFEFNTFEAPEIITTYQVTTTWNRKQHVAGLKALQDWAENTMPRELSMRLEINANALNWEGNYFGNAKDLKKVLQPIMKKAGGKSTISKLVETDWYGQINTYLYGADLNITYNYDVHEYFYANSLTAPRLSDEAISAFVDYKFDNSSVRPGRGWWIQWDFHGGKNSALASHSNDETAYAHRDQLWLWQFYDNIYDYENNTSPYPESGFEFMQGFVATIEDTLPEDRKGKYFNYADTTLDKEEAQKLYWRGNLEKLQAIKAKYDPEDVFGNVVSVEPIA
With B1 as the molecule, how does the “Specific Activity of Enzyme Variants” value ([1]; 10 mM glucose, 37° C., 15 min) read?
Its value is 2.6 µmol/min/mg.

And the “Specific activity Defined substrate concentration” value ([1]; 10 mM glucose, 37° C., 15 min)?
Its value is 2.62 µmol/mg/min.

What about the “Specific activity From Vmax” value ([1]; substrate glucose) of the same molecule?
Its value is 7.41 µmol/mg/min.

What about the “stability at 45° C.” value ([2]; 1 h at 45° C.) of the same molecule?
Its value is “stable”.

What about the “Residual activity after 1 h” value ([2]; incubation at 25° C.) of the same molecule?
The value was 100%.

And the “Residual activity after 1 h” value ([2]; incubation at 30° C.)?
Its value is 95%.

What about the “Residual activity after 1 h” value ([2]; incubation at 35° C.) of the same molecule?
The value was 100%.

And the “Residual activity after 1 h” value ([2]; incubation at 40° C.)?
The value was 100%.

And the “Residual activity after 1 h” value ([2]; incubation at 45° C.)?
Its value is 64%.

And the “Residual activity after 1 h” value ([2]; incubation at 50° C.)?
Its value is 7%.

And the “Residual activity after 1 h” value ([2]; incubation at 55° C.)?
Its value is under 5%.

And the “Residual activity after 1 h” value ([2]; incubation at 60° C.)?
Its value is under 5%.

And the Km [3]?
Its Km is 90 ± 10 µM.

And the kcat [3]?
Its kcat is 6.02 ± 0.192 s⁻¹.

And the kcat/Km [3]?
The kcat/Km was 70600 ± 8150 M⁻¹ s⁻¹.

And the Km [4]?
Its Km is 2810 ± 160 µM.

And the Km [5]?
Its Km is 70 ± 10 µM.

What about the kcat [5] of the same molecule?
Its kcat is 6.25 ± 0.178 s⁻¹.

And the kcat/Km [5]?
Its kcat/Km is 95500 ± 13900 M⁻¹ s⁻¹.

What about the Km [6] of the same molecule?
The Km was 100 ± 0 µM.

And the kcat [6]?
The kcat was 8.813 ± 0.085 s⁻¹.

And the kcat/Km [6]?
Its kcat/Km is 89800 ± 867 M⁻¹ s⁻¹.

And the Km [7]?
The Km was 100 ± 10 µM.

What about the kcat [7] of the same molecule?
Its kcat is 8.31 ± 0.123 s⁻¹.

What about the kcat/Km [7] of the same molecule?
The kcat/Km was 84300 ± 8530 M⁻¹ s⁻¹.

And the Km [8]?
The Km was 17360 ± 700 µM.

And the pH optimum [9]?
The pH optimum was 10 pH.

What about the “Specific Activity of Enzyme Variants” value [10] of the same molecule?
Its value is 10.2 µmol/min/mg.

What about the “Specific Activity of Enzyme Variants” value [11, 20] of the same molecule?
Its value is 0.5 µmol/min/mg.

And the “Specific activity Defined substrate concentration” value [11, 20]?
Its value is 0.52 µmol/mg/min.

And the oxidation of galactose ([11]; after 3 min using 10 mM sugar)?
Its oxidation of galactose is “detected”.

What about the “Specific activity From Vmax” value ([11]; substrate galactose) of the same molecule?
Its value is 7.08 µmol/mg/min.

And the “Specific Activity of Enzyme Variants” value [12]?
Its value is 11.0 µmol/min/mg.

What about the “Specific Activity of Enzyme Variants” value ([13]; 1 mM maltose, 37° C., 15 min) of the same molecule?
The value was 1.5 µmol/min/mg.

What about the “Specific activity Defined substrate concentration” value ([13]; 1 mM maltose, 37° C., 15 min) of the same molecule?
The value was 1.53 µmol/mg/min.

What about the “Specific activity From Vmax” value ([13]; substrate maltose) of the same molecule?
Its value is 5.94 µmol/mg/min.

And the “Specific Activity of Enzyme Variants” value [14, 21]?
Its value is 7.5 µmol/min/mg.

And the “Specific activity Defined substrate concentration” value [14, 21]?
The value was 7.48 µmol/mg/min.

And the “Specific activity From Vmax” value ([14]; substrate xylotriose)?
The value was 8.23 µmol/mg/min.

And the “Specific Activity of Enzyme Variants” value ([15]; 10 mM xylose, 37° C., 15 min)?
The value was 0.4 µmol/min/mg.

And the “Specific activity Defined substrate concentration” value ([15]; 10 mM xylose, 37° C., 15 min)?
The value was 0.42 µmol/mg/min.

What about the oxidation of xylose ([15]; after 3 min using 10 mM sugar) of the same molecule?
Its oxidation of xylose is “detected”.

What about the “Specific activity From Vmax” value ([15]; substrate xylose) of the same molecule?
The value was 5.20 µmol/mg/min.

What about the “Specific Activity of Enzyme Variants” value [16] of the same molecule?
Its value is 10.8 µmol/min/mg.

And the “activity retained after 1 h of incubation” value (“activity retained after 1 h” below) ([17]; pH 4)?
Its value is 40%.

What about the “activity retained after 1 h” value ([17]; pH 5 to pH 10) of the same molecule?
Its value is “more than 80%”.

What about the “activity retained after 1 h” value ([17]; pH values below 3 or above 11) of the same molecule?
The value was “less than 10%”.

What about the “Specific Activity of Enzyme Variants” value ([18]; 10 mM NAG, 37° C., 15 min) of the same molecule?
Its value is 0.2 µmol/min/mg.

What about the “Specific activity Defined substrate concentration” value ([18]; 10 mM NAG, 37° C., 15 min) of the same molecule?
The value was 0.25 µmol/mg/min.

What about the “oxidation of NAG” value ([18]; after 3 min using 10 mM sugar) of the same molecule?
Its value is “detected”.

What about the “Specific activity From Vmax” value ([18]; substrate NAG) of the same molecule?
Its value is 8.00 µmol/mg/min.

What about the “Specific Activity of Enzyme Variants” value [19, 22] of the same molecule?
Its value is 5.4 µmol/min/mg.

And the “Specific activity Defined substrate concentration” value [19, 22]?
The value was 5.38 µmol/mg/min.

And the “Specific activity From Vmax” value ([19]; substrate cellobiose)?
Its value is 6.18 µmol/mg/min.
